Measurements taken from publication PMC8282340.

What was measured:
[1] = target: fluorescent NOXA peptide (human); experiment: FP; settings: natural protein
[2] = target: fluorescent BID peptide (human); experiment: FP; settings: natural protein
[3] = target: NOXA peptide fused to the C-terminal half of T7 RNAP; experiment: luciferase assay; settings: parent: est. 1.0; read off a plot

Chain of human MCL-1 fused to the N-terminal half of T7 RNAP (Q07820 whole entry, the tested form may be a part): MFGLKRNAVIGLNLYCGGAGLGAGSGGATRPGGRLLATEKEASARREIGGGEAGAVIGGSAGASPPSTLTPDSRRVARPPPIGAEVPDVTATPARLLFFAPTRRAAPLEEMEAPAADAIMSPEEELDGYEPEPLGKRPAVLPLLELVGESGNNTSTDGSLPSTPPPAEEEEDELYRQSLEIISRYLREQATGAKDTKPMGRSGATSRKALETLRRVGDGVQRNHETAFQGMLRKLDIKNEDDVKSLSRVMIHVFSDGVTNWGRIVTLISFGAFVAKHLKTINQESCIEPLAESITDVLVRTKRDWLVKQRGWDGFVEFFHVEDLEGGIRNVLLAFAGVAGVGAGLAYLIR
Chain of fluorescent BID peptide (human) (P55957 79-99): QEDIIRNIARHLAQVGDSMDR
Chain of fluorescent NOXA peptide (human) (Q13794 19-43): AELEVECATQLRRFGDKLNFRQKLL

Substance	Kd [1] [nM]	Kd [2] [nM]	ratio to parent [3]
human MCL-1 fused to the N-terminal half of T7 RNAP	9.79	14.7	–
human MCL-1 fused to the N-terminal half of T7 RNAP a167T; g202S	–	–	1.1
human MCL-1 fused to the N-terminal half of T7 RNAP g202N; d263A	–	–	0.84
human MCL-1 fused to the N-terminal half of T7 RNAP n200S; f258V	–	–	3.8
human MCL-1 fused to the N-terminal half of T7 RNAP v189G	–	–	3.8
